Patent publication JP2008278814A (dated 2008)

How the values were obtained:
[1] = biological target: T1, GITR断片(アミノ酸翻訳部分N末端1-65番目)−HIDE1の膜貫通領域−mycタグ (human, UniProt Q9Y5U5 26-65); test: immunoprecipitation from 293T lysate, Western blot with HRP-labelled anti-myc antibody
T1 construct: domain: 膜貫通領域; Includes the signal peptide as encoded; no cleavage site stated; also called N末端1-65番目のGITR断片; not shown: HIDE1 transmembrane region; myc tag
T1 chain: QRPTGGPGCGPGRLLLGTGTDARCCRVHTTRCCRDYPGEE

[2] = biological target: T2, GITR断片(アミノ酸翻訳部分N末端1-60番目)−HIDE1の膜貫通領域−mycタグ (human); test: as above
T2 construct: domain: 膜貫通領域; Includes the signal peptide as encoded; no cleavage site stated; also called GITRの1-180塩基長; N末端1-60番目のGITR断片; not shown: HIDE1 transmembrane region; myc tag
T2 chain: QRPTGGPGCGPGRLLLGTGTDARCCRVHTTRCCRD

[3] = biological target: T3, GITR断片(アミノ酸翻訳部分N末端1-72番目)−HIDE1の膜貫通領域−mycタグ (human, UniProt Q9Y5U5 26-72); test: as above
T3 construct: domain: 膜貫通領域; also called N末端1-72番目のGITR断片; not shown: HIDE1 transmembrane region; myc tag
T3 chain: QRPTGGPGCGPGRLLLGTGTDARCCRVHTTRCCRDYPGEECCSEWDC

[4] = biological target: T4, ヒトGITR(glucocorticoid-induced tumor necrosis factor receptor-family related gene) (human, UniProt Q9Y5U5 26-241); test: cell ELISA and flow cytometry of hybridoma supernatant on 293T/GITR cells
T4 construct: whole, on cells; also called TNFRSF18
T4 sequence (looked up): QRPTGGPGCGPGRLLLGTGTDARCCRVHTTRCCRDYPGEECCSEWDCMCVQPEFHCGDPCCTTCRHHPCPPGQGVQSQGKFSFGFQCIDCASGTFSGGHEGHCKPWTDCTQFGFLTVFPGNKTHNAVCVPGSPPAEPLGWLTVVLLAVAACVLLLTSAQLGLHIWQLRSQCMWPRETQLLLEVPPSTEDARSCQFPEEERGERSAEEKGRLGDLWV

- binding result [1]: binds
- binding result [2]: binds
- binding result [3]: binds
B1: 抗ヒトGITRモノクローナル抗体(40-44抗体) (antibody, V domains shown)
VH: QVQLQQSGAELVRPGTSVKVSCKASGYAFSNYLIEWVKQRPGQGLEWIGVINPGSGSTNYNEKFKGKATLTADKSSSTAYMQLSSLTSDDSAVYFCARRTYYYGSNYYAMDYWGQGTSVTVSS
VL: DIQMNQSPSSLSSSLGDTITITCHASQNINVWLSWYQQKPGNIPKLLIYKASNLHTGVPSRFSGSGSGTGFTLTISSLQPEDIATYYCQQGQSYPFTFGSGTKLEIK
notes: Mouse (Balb/c) hybridoma monoclonal antibody; mouse IgG2A and mouse IgG1 were used as controls in different experiments; also called 抗ヒトGITR抗体
- binding result [4]: binds
